Laboratory results reported in patent publication US20240043563A1 (SHANGHAI MABGEEK BIOTECH, published 2024).

What was measured:
[1] = molecular target: T1, human MASP-2 of human serum (human, UniProt O00187 16-686); assay: cell-based or functional assay
Fc-cyno-MASP-2-CCS = Fc-cyno-MASP-2-CCS (human; cynomolgus monkey, UniProt P01857 119-329 = IgG part); assay: ELISA, plate coated with 1 ug/mL Fc-cyno-MASP-2-CCS
Protocol: The titer was tested by ELISA: an ELISA plate was coated with the Fc-hMASP-2A-CCS or Fc-hMASP-2-CCS antigen at a concentration of 1 μg/mL, 100 μL per well, and coated overnight at 4° C. The plate was washed twice with PBST (PBS containing 0.5% Tween-20) and then pat-dried. Each well was blocked with 200 μL of coating solution containing 1% BSA, blocked at room temperature for 4 hours, pat-dried, and stored in a refrigerator at −20° C. for use. During testing, 100 μL of mouse serum at different concentrations was added to each well of the ELISA plate, with two replicate wells for each concentration, and the plate was incubated at room temperature for 1.5 hours. The plate was washed three times with PBST and then pat-dried. 100 μL of HRP-labeled rabbit anti-mouse Ig antibody (purchased from Sigma) diluted with PBST by 1:10000 was added, and the plate was incubated at room temperature for 1 hour. The plate was washed three times with PBST and then pat-dried. 100 μL of chromogenic solution was added to each well (ELISA chromogenic solution A was mixed with chromogenic solution B at a volume ratio of 1:1 before use) for a chromogenic reaction, and then 100 μL of 2 M H₂SO₄ stopping solution was added to each well to terminate the reaction. The OD value of each well was immediately measured at 450 nm with a microplate reader (Molecular Device).
Murine anti-human MASP-2 monoclonal antibodies were purified by a Protein G affinity chromatography column, and then quantified by BCA method. The EC50 of anti-human MASP-2 monoclonal antibody binding to Fc-hMASP-2A-CCS or Fc-cyno-MASP-2-CCS was tested by ELISA. The testing method can refer to Example 2. A 96-well ELISA plate was coated with 1 μg/mL of Fc-hMASP-2A-CCS or Fc-cyno-MASP-2-CCS, and then added with murine anti-human MASP-2 monoclonal antibodies at different concentrations for testing.

[2] = molecular target: T1, human MASP-2 of human serum; assay: cell-based or functional assay; remark: listed apart in the source
[3] = molecular target: cynomolgus monkey MASP-2 of cynomolgus monkey serum (cynomolgus monkey); assay: cell-based or functional assay
[4] = molecular target: T1, human MASP-2 of human serum; assay: cell-based or functional assay; remark: listed apart in the source

T1 sequence (O00187 16-686 limits assumed): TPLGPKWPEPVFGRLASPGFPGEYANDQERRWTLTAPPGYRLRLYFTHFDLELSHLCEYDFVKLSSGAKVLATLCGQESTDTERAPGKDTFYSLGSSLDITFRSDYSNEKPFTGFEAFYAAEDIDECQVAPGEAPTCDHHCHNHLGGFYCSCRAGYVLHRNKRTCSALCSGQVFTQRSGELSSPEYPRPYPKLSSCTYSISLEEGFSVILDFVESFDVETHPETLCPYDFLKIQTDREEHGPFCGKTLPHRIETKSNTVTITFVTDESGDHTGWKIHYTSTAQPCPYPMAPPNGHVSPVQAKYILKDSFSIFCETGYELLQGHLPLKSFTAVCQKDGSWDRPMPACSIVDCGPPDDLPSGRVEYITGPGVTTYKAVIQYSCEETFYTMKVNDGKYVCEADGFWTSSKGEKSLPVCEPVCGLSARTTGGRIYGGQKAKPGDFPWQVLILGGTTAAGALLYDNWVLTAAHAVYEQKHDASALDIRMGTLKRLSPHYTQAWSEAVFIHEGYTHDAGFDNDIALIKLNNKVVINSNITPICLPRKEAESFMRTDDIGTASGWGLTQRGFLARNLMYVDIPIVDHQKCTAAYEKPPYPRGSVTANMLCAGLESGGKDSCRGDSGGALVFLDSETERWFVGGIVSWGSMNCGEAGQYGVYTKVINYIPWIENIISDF

B1: murine anti-human MASP-2 monoclonal antibody 60 (antibody, V domains shown)
VH: QVQLQQSGAELMKPGASVKISCKATGYPFSTYWIEWVKQRPGHGLEWIGEILPGSDNTNYNEKFKGKATFTADTSSNTAYMQLSSLTSEDSAVYYCARRTTATRAWFVYWGQGTLVTVSA
VL: DIVMSQSPSSLAVSVGEKVTMSCKSSQSLLYSSNQKNYLAWYQQKPGQSPKLLIYWASTRESGVPDRFTGSGSGTDFTLTISSVRAEDLAVYYCQHYYTYPWTFGGGTNLEIK
notes: Murine monoclonal antibody purified from hybridoma by Protein G
With B1 the “IC50 of inhibition of MASP-2-catalyzed C4 cleavage (4% human serum, C4b ELISA)” value (from here on “IC50 of inhibition … (4% human serum, C4b ELISA)”) [1] was 161 pM and the EC50 (Fc-cyno-MASP-2-CCS) was 96 pM.

B2: humanized anti-human MASP-2 monoclonal antibody 100-Hu (antibody, human IgG4 S228P, kappa, V domains shown)
VH: QVQLVESGGGVVQPGGSLRLSCAASGFTFSNFGIHWVRQAPGKGLEWVAYISSGGSAVFYADTVKGRFTISRDNSKNTLYLQMNSLRAEDTAVYYCAKSDRYFDYWGQGTTVTVSS
VL: EIVLTQSPATLSLSPGERATLSCRASQSVSSSSYRYIHWYQQKPGQAPRLLIYYASNLESGIPARFSGSGSGTDFTLTISSLEPEDFAVYYCQHSWETPWTFGQGTKLEIKR
For B2, the “C4 cleavage IC50 (4% human serum)” value [2] was 281 pM.

B3: humanized anti-human MASP-2 monoclonal antibody 124-Hu (antibody, human IgG4 S228P, kappa, V domains shown)
VH: QVQLQESGPGLVKPSQTLSLTCTVSGYSITSDYAWNWIRQPPGKGLEWMGYISYSGRTSYNPSLKSRLTISRDTSKNQFSLKLSSVTAADTAVYYCARHYGDFWGQGTTVTVSS
VL: DIQMTQSPSSLSASVGDRVTITCKASQNVDTNVAWYQQKPGKAPKLLIYSASYRYSGVPSRFSGSGSGTDFTLTISSLQPEDFATYYCQQYNSYPSTFGQGTKLEIKR
In the case of B3, the “C4 cleavage IC50 (4% human serum)” value [2] is reported as 214 pM, the “IC50 of inhibition of MASP-2-catalyzed C4 cleavage in 90% cynomolgus monkey serum” value [3] is reported as 168000 pM and the “IC50 of inhibition of MASP-2-catalyzed C4 cleavage in 90% human serum” value [4] is reported as 3750 pM. For the same binder, the “IC50 of inhibition of MASP-2-mediated C3b production (4% C1q-removed human serum)” value [4] was 1140 pM.

B4: humanized anti-human MASP-2 monoclonal antibody 126-Hu (antibody, human IgG4 S228P, kappa, V domains shown)
VH: QVQLVESGGGVVQPGRSLRLSCAASGFTFSSFGMHWVRQAPGKGLEWVAYISSGSSSSFYVDTVKGRFTISRDNSKNTLYLQMNSLRAEDTAVYYCARGDRNFEVWGQGTTVTVSS
VL: DIQMTQSPSSLSASVGDRVTITCRASQSVSSSRYSYMHWFQQKPGKAPKLLIYHASNLESGVPSRFSGSGSGTDFTLTISSLQPEDFATYYCQQSWEVPWTFGQGTKLEIKR
With B4 the “C4 cleavage IC50 (4% human serum)” value [2] was 59.8 pM, the “IC50 of inhibition of MASP-2-catalyzed C4 cleavage in 90% human serum” value [4] was 3460 pM and the “IC50 of inhibition of MASP-2-mediated C3b production (4% C1q-removed human serum)” value [4] was 494 pM.

B5: humanized anti-human MASP-2 monoclonal antibody 136-Hu (antibody, human IgG4 S228P, kappa, V domains shown)
VH: QVQLVQSGAEVKKPGASVKVSCKASGNTFTNYWMHWIRQAPGQGLEWMGYINPNTGYTDFNQKFKDRVTLTADKSTSTAYMELSSLRSEDTAVYYCTLQLGRNFDYWGQGTTVTVSS
VL: DIQMTQSPSSLSASVGDRVTITCRASQSVSSSRSTYIHWYQQKPGKAPKLLIYYSSNLESGVPSRFSGSGSGTDFTLTISSLQPEDFATYYCHQSWEIPYTFGQGTKLEIKR
In the case of B5, the “C4 cleavage IC50 (4% human serum)” value [2] is reported as 311 pM.

B6: murine anti-human MASP-2 monoclonal antibody 100 (antibody, V domains shown)
VH: DVQLVESGGGLVQPGGSRKLSCAASGFTFSNFGIHWVRQAPEKGLEWVAYISSGGSAVFYADTVKGRFTISRDNSKNTLFLQMTSLRSEDTAIYYCAKSDRYFDYWGQGTTLTVSS
VL: DIVLTQSPASLAVSLGQRATISCRASQSVSSSSYRYIHWYQQKPGQPPRLLIKYASNLESGVPARFSGSGSGTDFTLNIHPVEEEDTATYYCQHSWETPWTFGGGTKLEIK
With B6 the “IC50 of inhibition … (4% human serum, C4b ELISA)” value [1] was 238 pM.

B7: murine anti-human MASP-2 monoclonal antibody 115 (antibody, V domains shown)
VH: DVQLVESGGGLVQPGGSRKLSCAASGFTFSSFGMHWVRQAPEKGLEWVAYISSGSSSFFYADTVKGRFTISRDNPKNTLFLQMTSLRSEDTAMYYCARGDRNFDVWGAGTTVTVSS
VL: DIVLTQSPASLAVSLGQRATISCRASQSVTSSRYSYMHWFQQKPGQPPNLLIKHASNLESGVPARFSGSGSGTDFTLNIHPVEEDDTATYYCQHSWEVPWTFGGGTKLEIK
For B7, the “IC50 of inhibition … (4% human serum, C4b ELISA)” value [1] was 82.6 pM.

B8: murine anti-human MASP-2 monoclonal antibody 120 (antibody, V domains shown)
VH: DVQLQESGPGLVKPSQSLSLTCTVTGYSITSDYAWSWIRQFLRNKLEWMGYISYSGRTSYNPSLKSRISITRDTSKNQFFLQLNSVTTEDTATYFCARLITGGDYWGQGTSVTVSS
VL: DIVMTQSQKFMSTSVGDRVSVTCKASQNVGINVVWYQQKPGQSPKALIYSASYRFSGVPDRFTGSGSGTDFTLTISNVQSEDLAEYLCLQYDINPLTFGAGTKLELK
notes: as for B1
In the case of B8, the “IC50 of inhibition … (4% human serum, C4b ELISA)” value [1] is reported as 275 pM and the EC50 (Fc-cyno-MASP-2-CCS) is reported as 160 pM.

B9: murine anti-human MASP-2 monoclonal antibody 124 (antibody, V domains shown)
VH: DVQLQESGPGLVKPSQSLSLTCTVTGYSITSDYAWNWIRQFPGNKLEWMGYISYSGRTSYNPSLKSRLSITRDTSKNQFFLQLTSVTTEDTATYYCARHYGDFWGQGTTLTVSS
VL: DIVMTQSQKFMSTSVGDRVSVTCKASQNVDTNVAWFQQKPGQSPKPLIYSASYRYSGVPDRFTGSGSGTDFTLTISNVQSEDLANYFCQQYNSYPSTFGSGTKLEIK
notes: as for B1
For B9, the “IC50 of inhibition … (4% human serum, C4b ELISA)” value [1] was 150 pM and the EC50 (Fc-cyno-MASP-2-CCS) was 179 pM.

B10: murine anti-human MASP-2 monoclonal antibody 126 (antibody, V domains shown)
VH: DVQLVESGGGLVQPGGSRKLSCVASGFTFSSFGMHWVRQAPEKGLEWVAYISSGSSSSFYVDTVKGRFTISRDNPKNTLFLQMTSLRSEDTAMYYCARGDRNFEVWGAGTTVTVSS
VL: DIVLTQSPASLAVSLGQRATISCRASQSVSSSRYSYMHWFQQKPGQPPNLLIKHASNLESGVPARFSGSGSGTDFTLNIHPVEEEDTATYYCQQSWEVPWTFGGGTKLEIK
For B10, the “IC50 of inhibition … (4% human serum, C4b ELISA)” value [1] was 77.4 pM.

B11: murine anti-human MASP-2 monoclonal antibody 136 (antibody, V domains shown)
VH: QVQLQQSGAELAKPGASVKMSCKASGNTFTNYWMHWIKQRPGQGLEWVGYINPNTGYTDFNQKFKDKATLTADKSSTTAYMQLISLTSEDSTVYYCTLQLGRNFDYWGQGTTLTVSS
VL: DIVLTQSPASLGVSLGQRATISCRASQSVSSSRSTYIHWYQQKPGQPPKLLIKYSSNLESGVPARFSGGGSGTDFTLNIHPVEAEDTATYYCHQSWEIPYTFGGGTKLEIR
For B11, the “IC50 of inhibition … (4% human serum, C4b ELISA)” value [1] was 75.7 pM.
